# Data from the Human Domainome abundance scans (Beltran et al. 2025).
# ± gives the uncertainty stated by the source.
# B1: Lysine-specific demethylase 2B, residues 656 to 722; numbered along this chain, Q8NHM5 (parent)
# chain: LPHTAVCLVCGEAGKEDTVEEEEGKFNLMLMECSICNEIIHPGCLKIKESEGVVNDELPNCWECPKC
# Variants of: B1
# Assay: abundance fitness (aPCA) (normalised: wild type 0, dead -1); higher = more abundant; growth selection in yeast, the domain comes from the species named
# Conditions: Homo sapiens
row,Variant,abundance fitness
1,I40L,-0.154 ± 0.072
2,I40G,-0.229 ± 0.067
3,I40H,0.1 ± 0.2
4,I40Q,-0.192 ± 0.056
5,I40N,0.171 ± 0.15
6,I40Y,-0.257 ± 0.25
7,I40P,-0.72 ± 0.12
8,I40T,0.126 ± 0.079
9,I40V,0.215 ± 0.074
10,I40C,-0.06 ± 0.16
11,I40F,-0.579 ± 0.31
12,I40S,0.096 ± 0.074
13,I40A,0.008 ± 0.064
14,I40E,-0.599 ± 0.086
15,I40K,-0.368 ± 0.12
16,I40R,-0.2 ± 0.07
17,I40W,-0.473 ± 0.11
18,E38N,-0.402 ± 0.16
19,E38M,0.066 ± 0.072
20,E38V,-0.13 ± 0.073
21,E38C,-0.291 ± 0.14
22,E38S,-0.06 ± 0.093
23,E38P,-0.723 ± 0.29
24,E38I,-0.085 ± 0.13

row,Variant,abundance fitness
1,E38R,0.104 ± 0.07
2,E38T,-0.57 ± 0.2
3,E38F,-0.69 ± 0.29
4,E38A,-0.356 ± 0.093
5,E38Q,-0.098 ± 0.12
6,E38G,-0.286 ± 0.063
7,E38H,-0.566 ± 0.44
8,E38W,-0.163 ± 0.11
9,E38K,-0.206 ± 0.33
10,E38D,-0.294 ± 0.35
11,I39E,-0.256 ± 0.085
12,I39M,0.119 ± 0.11
13,I39C,-0.216 ± 0.23
14,I39Y,0.076 ± 0.11
15,I39L,-0.125 ± 0.073
16,I39T,-0.053 ± 0.13
17,I39A,-0.029 ± 0.068
18,I39R,0.138 ± 0.065
19,I39W,-0.157 ± 0.095
20,I39Q,0.257 ± 0.089
21,I39N,0.056 ± 0.15
22,I39K,-0.021 ± 0.12
23,I39P,-0.055 ± 0.13
24,I39S,-0.129 ± 0.086

row,Variant,abundance fitness
1,I39V,0.013 ± 0.074
2,I39G,-0.141 ± 0.067
3,I39H,0.245 ± 0.16
4,L45D,-0.483 ± 0.17
5,L45K,-0.402 ± 0.058
6,L45P,-0.515 ± 0.19
7,L45A,-0.224 ± 0.2
8,L45E,-0.547 ± 0.2
9,L45T,-0.085 ± 0.1
10,L45W,-0.493 ± 0.15
11,L45R,-0.002 ± 0.056
12,L45M,0.032 ± 0.12
13,L45S,0.081 ± 0.097
14,L45H,-0.188 ± 0.18
15,L45G,-0.114 ± 0.081
16,L45I,-0.434 ± 0.41
17,L45Q,0.069 ± 0.16
18,L45V,-0.092 ± 0.074
19,L45F,-0.286 ± 0.18
20,G43Y,-0.02 ± 0.2
21,G43W,-0.52 ± 0.12
22,G43M,0.113 ± 0.099
23,G43K,-0.219 ± 0.13
24,G43C,-0.395 ± 0.12

row,Variant,abundance fitness
1,G43T,-0.375 ± 0.11
2,G43V,-0.302 ± 0.12
3,G43S,-0.364 ± 0.18
4,G43F,-0.558 ± 0.16
5,G43D,-0.064 ± 0.2
6,G43L,-0.536 ± 0.088
7,G43A,0.085 ± 0.1
8,G43R,-0.173 ± 0.065
9,G43H,-0.433 ± 0.32
10,G43P,-0.526 ± 0.15
11,G43N,-0.195 ± 0.22
12,G43Q,-0.383 ± 0.13
13,H41A,-0.931 ± 0.22
14,H41E,-0.997 ± 0.18
15,H41V,-1.21 ± 0.44
16,H41S,-1.03 ± 0.27
17,H41R,-0.943 ± 0.12
18,H41K,-0.278 ± 0.16
19,H41Y,-0.912 ± 0.33
20,H41C,-0.767 ± 0.25
21,H41T,-0.784 ± 0.16
22,H41G,-0.903 ± 0.12
23,H41W,-0.913 ± 0.14
24,H41Q,-0.952 ± 0.21

row,Variant,abundance fitness
1,H41L,-0.925 ± 0.14
2,C44P,-0.722 ± 0.12
3,C44M,-0.735 ± 0.22
4,C44N,-0.815 ± 0.46
5,C44S,-0.843 ± 0.14
6,C44G,-0.764 ± 0.12
7,C44V,-0.906 ± 0.15
8,C44Y,-0.897 ± 0.44
9,C44W,-0.8 ± 0.16
10,C44Q,-0.79 ± 0.12
11,C44R,-0.709 ± 0.11
12,C44L,-0.956 ± 0.16
13,C44A,-0.779 ± 0.18
14,C44T,-0.982 ± 0.19
15,K46A,-0.01 ± 0.1
16,K46Y,0.042 ± 0.43
17,K46Q,0.195 ± 0.12
18,K46H,-0.532 ± 0.28
19,K46I,-0.311 ± 0.15
20,K46W,-0.148 ± 0.098
21,K46G,0.205 ± 0.078
22,K46S,0.206 ± 0.081
23,K46D,0.224 ± 0.18
24,K46R,0.016 ± 0.064

row,Variant,abundance fitness
1,K46L,0.007 ± 0.08
2,K46E,0.206 ± 0.14
3,K46V,-0.058 ± 0.07
4,K46T,0.211 ± 0.19
5,K46P,0.077 ± 0.089
6,N37T,-0.369 ± 0.24
7,N37K,0.095 ± 0.2
8,N37M,-0.062 ± 0.097
9,N37G,0.092 ± 0.059
10,N37E,0.02 ± 0.1
11,N37Q,0.183 ± 0.1
12,N37R,0.111 ± 0.066
13,N37A,0.094 ± 0.085
14,N37V,-1.3 ± 0.25
15,N37Y,0.137 ± 0.12
16,N37H,0.081 ± 0.12
17,N37W,-0.267 ± 0.1
18,N37F,-0.233 ± 0.2
19,N37D,-0.026 ± 0.16
20,N37S,0.057 ± 0.096
21,N37C,0.34 ± 0.33
22,C36W,-1.38 ± 0.23
23,I47A,-0.014 ± 0.11
24,I47L,-0.133 ± 0.072

row,Variant,abundance fitness
1,I47C,-0.168 ± 0.11
2,I47G,0.011 ± 0.087
3,I47F,-0.047 ± 0.19
4,I47K,-0.17 ± 0.13
5,I47H,-0.242 ± 0.28
6,I47D,-0.261 ± 0.24
7,I47E,0.038 ± 0.11
8,P42W,-0.32 ± 0.1
9,P42R,-0.134 ± 0.063
10,P42Y,0.122 ± 0.27
11,P42T,-0.568 ± 0.18
12,P42L,-0.317 ± 0.079
13,P42V,-0.423 ± 0.13
14,P42K,-0.285 ± 0.15
15,P42Q,-0.189 ± 0.23
16,P42M,-0.52 ± 0.22
17,P42G,-0.302 ± 0.076
18,P42F,-0.272 ± 0.19
19,P42E,-0.537 ± 0.093
20,P42H,0.019 ± 0.18
21,P42A,-0.34 ± 0.09
22,P42D,-0.644 ± 0.22
23,P42C,-0.355 ± 0.21
